The target of one assay is T1, human Nectin-4 (Homo sapiens, UniProt Q96NY8).
T1 sequence (Q96NY8 32-510): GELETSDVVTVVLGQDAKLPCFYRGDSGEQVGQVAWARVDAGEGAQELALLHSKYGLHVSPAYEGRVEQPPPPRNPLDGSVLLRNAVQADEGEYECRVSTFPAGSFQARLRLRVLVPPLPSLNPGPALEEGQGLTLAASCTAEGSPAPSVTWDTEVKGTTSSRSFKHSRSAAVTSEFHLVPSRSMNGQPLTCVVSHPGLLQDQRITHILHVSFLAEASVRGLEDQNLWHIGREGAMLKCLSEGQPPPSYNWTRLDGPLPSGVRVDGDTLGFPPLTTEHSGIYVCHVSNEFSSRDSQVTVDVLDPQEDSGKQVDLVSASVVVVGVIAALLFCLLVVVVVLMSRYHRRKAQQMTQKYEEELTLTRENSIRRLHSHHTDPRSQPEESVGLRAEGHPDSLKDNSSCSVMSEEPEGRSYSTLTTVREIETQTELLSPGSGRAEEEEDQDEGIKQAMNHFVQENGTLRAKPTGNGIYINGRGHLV
In words: Species cross-reactivity, binding to Nectin-4. On the procedure:
(§1) Anti-Nectin-4 antibodies were tested by flow cytometry for binding to different CHO cell lines made to express respectively the mouse, cynomolgus and rat Nectin-4 protein (including an N-terminal V5 tag not shown in the sequences below).
Antibody 5E7 bound human, cynomolgus, as well as rat Nectin 4 proteins but lack binding to the mouse Nectin 4 protein. FIGS. 6A and 6B show binding of anti-Nectin-4 antibodies on rat and cynomolgus Nectin-4-expressing CHO cell lines.

In assay [1] the target is T2, cynomolgus Nectin-4 protein expressed on CHO cells (cynomolgus, UniProt Q96NY8 32-510 (human entry)).
T2 construct: also called Cyno Nectin-4 V5
T2 chain: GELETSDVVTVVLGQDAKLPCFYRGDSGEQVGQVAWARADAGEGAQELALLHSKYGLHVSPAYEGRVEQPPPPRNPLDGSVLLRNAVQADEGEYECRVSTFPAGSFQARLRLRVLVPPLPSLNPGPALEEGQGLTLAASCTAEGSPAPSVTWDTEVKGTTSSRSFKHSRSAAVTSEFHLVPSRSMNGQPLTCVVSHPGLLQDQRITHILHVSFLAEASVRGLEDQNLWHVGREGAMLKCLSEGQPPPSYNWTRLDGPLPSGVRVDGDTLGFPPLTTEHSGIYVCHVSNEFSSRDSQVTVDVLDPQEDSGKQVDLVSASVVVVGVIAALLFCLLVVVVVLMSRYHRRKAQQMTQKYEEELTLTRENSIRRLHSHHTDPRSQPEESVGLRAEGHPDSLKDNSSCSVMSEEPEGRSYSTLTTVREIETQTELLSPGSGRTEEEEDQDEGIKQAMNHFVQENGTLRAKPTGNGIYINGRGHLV
Description: flow cytometry on CHO cells expressing cynomolgus Nectin-4, Median MFI (PE). On the procedure: as §1
A general note: In flow cytometry, cells or beads pass a laser one at a time.

The target of another assay is T3, human Nectin-4 Mutant 7 (human, UniProt Q96NY8 32-510).
T3 construct: Expressed on transfected HEK293T cells; also called S195A/K197T/S199A
T3 chain: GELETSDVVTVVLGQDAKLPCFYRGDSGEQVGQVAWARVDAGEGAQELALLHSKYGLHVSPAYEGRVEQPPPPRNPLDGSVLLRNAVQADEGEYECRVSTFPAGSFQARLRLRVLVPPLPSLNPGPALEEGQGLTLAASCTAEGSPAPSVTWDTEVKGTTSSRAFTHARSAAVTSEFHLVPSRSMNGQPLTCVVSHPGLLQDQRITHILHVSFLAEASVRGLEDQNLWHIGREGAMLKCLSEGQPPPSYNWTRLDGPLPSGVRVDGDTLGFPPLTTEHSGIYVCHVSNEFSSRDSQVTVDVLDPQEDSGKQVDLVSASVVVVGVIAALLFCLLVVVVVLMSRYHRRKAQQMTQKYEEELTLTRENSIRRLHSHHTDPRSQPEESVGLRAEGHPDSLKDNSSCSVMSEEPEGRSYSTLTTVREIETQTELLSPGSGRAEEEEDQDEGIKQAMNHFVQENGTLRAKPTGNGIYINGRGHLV
Description: binding to HEK293T cells expressing Nectin-4 mutant; '-' means association does not occur.

For assay [2], the target named is T4, human Nectin-4 Mutant 7bis (human, UniProt Q96NY8 32-510).
T4 construct: Expressed on transfected HEK293T cells; also called A72P/G73N/K197T/S199A
T4 chain: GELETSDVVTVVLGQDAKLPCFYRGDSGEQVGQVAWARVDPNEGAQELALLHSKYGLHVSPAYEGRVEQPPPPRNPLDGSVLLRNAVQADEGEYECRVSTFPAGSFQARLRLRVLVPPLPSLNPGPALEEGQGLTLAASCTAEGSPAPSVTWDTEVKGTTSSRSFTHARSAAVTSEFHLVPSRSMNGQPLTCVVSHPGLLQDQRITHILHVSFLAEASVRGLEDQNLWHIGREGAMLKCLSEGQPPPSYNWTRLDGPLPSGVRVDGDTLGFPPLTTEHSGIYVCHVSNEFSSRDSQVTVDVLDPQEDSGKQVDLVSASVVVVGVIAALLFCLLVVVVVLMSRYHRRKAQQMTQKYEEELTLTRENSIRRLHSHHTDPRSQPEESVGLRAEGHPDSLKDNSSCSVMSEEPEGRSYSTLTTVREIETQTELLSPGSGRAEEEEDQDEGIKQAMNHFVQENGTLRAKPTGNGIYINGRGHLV
Described as above.

A further assay deals with T5, human Nectin-4 Mutant 1 (human, UniProt Q96NY8 32-510).
T5 construct: Expressed on transfected HEK293T cells; also called S58P/G59D/Q61A/N106D/P107A
T5 chain: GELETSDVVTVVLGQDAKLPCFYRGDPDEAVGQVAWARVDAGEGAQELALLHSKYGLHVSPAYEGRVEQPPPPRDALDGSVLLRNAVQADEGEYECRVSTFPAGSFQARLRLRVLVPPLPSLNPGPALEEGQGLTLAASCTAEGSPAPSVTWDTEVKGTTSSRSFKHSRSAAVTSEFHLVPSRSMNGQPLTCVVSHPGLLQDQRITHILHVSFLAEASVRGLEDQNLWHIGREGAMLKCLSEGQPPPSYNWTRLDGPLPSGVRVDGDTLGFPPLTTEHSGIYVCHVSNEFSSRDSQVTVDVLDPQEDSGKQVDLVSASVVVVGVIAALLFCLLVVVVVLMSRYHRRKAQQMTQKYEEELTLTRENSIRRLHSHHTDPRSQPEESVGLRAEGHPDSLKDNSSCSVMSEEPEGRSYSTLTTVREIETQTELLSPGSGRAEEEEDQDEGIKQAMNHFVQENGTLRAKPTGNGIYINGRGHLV
Described as above.

Broadly, the EC50 (read off the curve) is the concentration needed to bring the measured effect to its halfway point. A high value points to a less potent agent.

B1: 5E7 (antibody, V domains shown)
VH: QVQLQQPGAELVKPGASVKLSCKASGYIFTSYWMHWVKQRPGQGLEWIGEIDPSDSYTNYNQKFKGKATLTLDKSSSTTYMQLSSLTSEDSAVYYCVRGYGNYGDYWGQGTTLTVSSASTKGP
VL: DVVMTQAAFSNPVTLGTSASISCRSSKSLLHSNGITYLYWYLQKPGQSPQLLIYQMSNLASGVPDRFSSSGSGTDFTLRISRVEAEDVGVYYCAQNLELPWTFGGGTKLEIKRTVAAP
For the molecule B1, the “binding to human Nectin 4 protein” value with human Nectin-4 is listed as “bound”.

B2: chimeric parental 5E7 antibody (antibody, V domains shown)
VH: QVQLQQPGAELVKPGASVKLSCKASGYIFTSYWMHWVKQRPGQGLEWIGEIDPSDSYTNYNQKFKGKATLTLDKSSSTTYMQLSSLTSEDSAVYYCVRGYGNYGDYWGQGTTLTVSS
VL: DVVMTQAAFSNPVTLGTSASISCRSSKSLLHSNGITYLYWYLQKPGQSPQLLIYQMSNLASGVPDRFSSSGSGTDFTLRISRVEAEDVGVYYCAQNLELPWTFGGGTKLEIKR
notes: Chimeric antibody, murine variable domains with human constant regions; also called ch5E7; CHG1-M-1N4-5E7
As to B2, in assay [1], the “EC50 (read off the curve)” value was roughly 0.03 µg/mL. In addition, the binding result (with human Nectin-4 Mutant 7; in assay [2]) was “no binding” in each case.

B3: N41 (antibody, V domains shown)
VH: QVQLKQSGPGLVQPSQSLSITCTVSGFSLTNYGVHWVRQSPGKGLEWLGVIWSGGSTDYNAAFISRLSISKDTSKSQVFFKMNSLQADDTAIYYCARELIHAMDNWGQGTSVTVSS
VL: DIQMTQSPASLSVSVGETVTITCRASENIYSNLAWYQQKQGNSPQLLVFAATNLADGVPSRFSGSGSGTQYSLKINSLQSEDFGTYYCQHFWGTPTFGGGTKLEIK
Take B3: in the assay with human Nectin-4 Mutant 1, the binding result is “no binding”.
